Results on one molecule are retold here after PMC7508794, “IRES-targeting small molecule inhibits enterovirus 71 replication via allosteric stabilization of a ternary complex”.

The target in one data set is A1-RRM1,2 (UP1) (UniProt P09651 1-196). Nature of the data set: ITC; no small molecule; ITC: 10 mM K2HPO4, 20 mM KCl, 0.5 mM EDTA, 4 mM BME, pH 6.5, 25 C; lysate pull-down: 5 mM HEPES pH 7.1, 40 mM KCl, 0.1 mM EDTA, 2 mM MgCl2, 2 mM DTT, 0.25 mg/ml heparin, 30 C. As to conditions: protein: recombinant; tags: C-terminal His6; hairpin with 5-nt bulge and 7-nt apical loop.
Chain of A1-RRM1,2 (UP1) (P09651 1-196): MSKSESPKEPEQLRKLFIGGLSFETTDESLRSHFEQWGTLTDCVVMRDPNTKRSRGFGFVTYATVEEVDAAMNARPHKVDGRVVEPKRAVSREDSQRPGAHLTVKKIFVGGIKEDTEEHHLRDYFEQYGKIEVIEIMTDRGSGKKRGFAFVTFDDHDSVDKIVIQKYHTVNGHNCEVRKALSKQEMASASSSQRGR

Data set [1] has as its target T1, AUF1-RRM1,2 (UniProt Q14103-4 70-239). The description is as above. As to conditions: protein: recombinant; tags: N-terminal His6, cleaved with TEV; hairpin with 5-nt bulge and 7-nt apical loop.
The target of data set [2] is T1, AUF1-RRM1,2. Nature of the data set: ITC; DMA-001, RNA:DMA 1:5; ITC: 10 mM K2HPO4, 20 mM KCl, 0.5 mM EDTA, 4 mM BME, pH 6.5, 25 C; lysate pull-down: 5 mM HEPES pH 7.1, 40 mM KCl, 0.1 mM EDTA, 2 mM MgCl2, 2 mM DTT, 0.25 mg/ml heparin, 30 C. As to conditions: protein: recombinant; tags: N-terminal His6, cleaved with TEV; hairpin with 5-nt bulge and 7-nt apical loop.
Data set [3] has as its target T1, AUF1-RRM1,2. Nature of the data set: ITC; DMA-135, RNA:DMA 1:5; ITC: 10 mM K2HPO4, 20 mM KCl, 0.5 mM EDTA, 4 mM BME, pH 6.5, 25 C; lysate pull-down: 5 mM HEPES pH 7.1, 40 mM KCl, 0.1 mM EDTA, 2 mM MgCl2, 2 mM DTT, 0.25 mg/ml heparin, 30 C. As to conditions: protein: recombinant; tags: N-terminal His6, cleaved with TEV; hairpin with 5-nt bulge and 7-nt apical loop.

For data set [4], the target named is T1, AUF1-RRM1,2. As to the kind of experiment: ITC; DMA-155, RNA:DMA 1:5; ITC: 10 mM K2HPO4, 20 mM KCl, 0.5 mM EDTA, 4 mM BME, pH 6.5, 25 C; lysate pull-down: 5 mM HEPES pH 7.1, 40 mM KCl, 0.1 mM EDTA, 2 mM MgCl2, 2 mM DTT, 0.25 mg/ml heparin, 30 C. As to conditions: protein: recombinant; tags: N-terminal His6, cleaved with TEV; hairpin with 5-nt bulge and 7-nt apical loop.

The target in data set [5] is T1, AUF1-RRM1,2. Nature of the data set: ITC; DMA-135, RNA:DMA 1:1.6; ITC: 10 mM K2HPO4, 20 mM KCl, 0.5 mM EDTA, 4 mM BME, pH 6.5, 25 C; lysate pull-down: 5 mM HEPES pH 7.1, 40 mM KCl, 0.1 mM EDTA, 2 mM MgCl2, 2 mM DTT, 0.25 mg/ml heparin, 30 C. As to conditions: protein: recombinant; tags: N-terminal His6, cleaved with TEV; hairpin with 5-nt bulge and 7-nt apical loop.

In data set [6] the target is T1, AUF1-RRM1,2. Nature of the data set: ITC; DMA-135, RNA:DMA 1:3.3; ITC: 10 mM K2HPO4, 20 mM KCl, 0.5 mM EDTA, 4 mM BME, pH 6.5, 25 C; lysate pull-down: 5 mM HEPES pH 7.1, 40 mM KCl, 0.1 mM EDTA, 2 mM MgCl2, 2 mM DTT, 0.25 mg/ml heparin, 30 C. As to conditions: protein: recombinant; tags: N-terminal His6, cleaved with TEV; hairpin with 5-nt bulge and 7-nt apical loop.

T1 sequence (Q14103 other isoform, or with tags, fused parts or gaps): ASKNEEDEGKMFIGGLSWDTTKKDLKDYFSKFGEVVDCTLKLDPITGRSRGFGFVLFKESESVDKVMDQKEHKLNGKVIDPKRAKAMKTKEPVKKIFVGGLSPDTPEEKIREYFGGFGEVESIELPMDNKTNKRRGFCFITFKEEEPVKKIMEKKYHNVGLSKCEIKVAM

With GGAUCAAUAGCAGGUGUGGCACACCAGUCAUACCUUGAUCC (structured_RNA) [EV71 SLII (SLII2231)], the binding result with A1-RRM1,2 (UP1) is given as “binds”. The dissociation constant Kd with AUF1-RRM1,2 [1] worked out at 336 ± 44 nM; with AUF1-RRM1,2 [2], 306 ± 4 nM; in the data set with AUF1-RRM1,2 [3], 134 ± 7 nM; in the data set with AUF1-RRM1,2 [4], 390 ± 7 nM; in the data set with AUF1-RRM1,2 [5], 240 ± 72 nM; with AUF1-RRM1,2 [6] it was 140 ± 2 nM.
